Consider 2 substances from article PMC2119998.

Holding throughout (assay): radioligand binding
The target in experiment [1] is Ng-CAM (chicken) (chicken) (UniProt Q03696).
Experiment [2] deals with Ng-CAM and N-CAM (physiological salt).
In experiment [3] the target is laminin.

neurocan, sequence (P55067 23-1257): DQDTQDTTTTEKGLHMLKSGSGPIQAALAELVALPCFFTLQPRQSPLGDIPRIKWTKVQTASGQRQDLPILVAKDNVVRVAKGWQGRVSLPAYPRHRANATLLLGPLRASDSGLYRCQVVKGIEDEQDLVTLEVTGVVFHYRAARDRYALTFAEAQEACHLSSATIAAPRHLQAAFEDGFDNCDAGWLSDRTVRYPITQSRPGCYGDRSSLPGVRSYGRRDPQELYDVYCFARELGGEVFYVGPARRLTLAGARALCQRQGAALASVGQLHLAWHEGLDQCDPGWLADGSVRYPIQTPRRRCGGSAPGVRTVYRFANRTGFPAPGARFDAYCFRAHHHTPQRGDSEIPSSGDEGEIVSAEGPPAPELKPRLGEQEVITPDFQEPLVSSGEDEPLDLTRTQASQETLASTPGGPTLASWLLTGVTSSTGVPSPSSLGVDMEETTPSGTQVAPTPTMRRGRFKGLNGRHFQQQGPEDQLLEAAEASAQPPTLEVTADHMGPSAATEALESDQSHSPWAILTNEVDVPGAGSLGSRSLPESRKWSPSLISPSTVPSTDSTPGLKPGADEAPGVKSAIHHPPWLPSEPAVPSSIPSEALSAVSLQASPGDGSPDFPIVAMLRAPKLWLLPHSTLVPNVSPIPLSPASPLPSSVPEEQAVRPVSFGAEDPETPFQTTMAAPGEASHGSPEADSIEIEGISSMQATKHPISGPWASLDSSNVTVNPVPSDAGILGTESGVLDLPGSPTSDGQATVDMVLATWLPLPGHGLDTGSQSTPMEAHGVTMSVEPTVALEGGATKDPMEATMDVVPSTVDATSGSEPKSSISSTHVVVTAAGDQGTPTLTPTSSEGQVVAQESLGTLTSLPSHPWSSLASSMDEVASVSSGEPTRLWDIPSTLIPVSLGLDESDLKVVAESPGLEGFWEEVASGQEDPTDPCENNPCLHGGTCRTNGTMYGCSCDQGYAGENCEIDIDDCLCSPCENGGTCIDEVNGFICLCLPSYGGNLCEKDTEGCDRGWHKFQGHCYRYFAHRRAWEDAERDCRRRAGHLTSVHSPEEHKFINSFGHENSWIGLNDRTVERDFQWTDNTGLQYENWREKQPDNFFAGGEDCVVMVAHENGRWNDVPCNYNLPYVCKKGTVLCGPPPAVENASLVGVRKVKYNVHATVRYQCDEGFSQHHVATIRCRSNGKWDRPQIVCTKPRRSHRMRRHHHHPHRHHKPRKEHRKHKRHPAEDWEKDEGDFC
Ng-CAM (chicken) (chicken), sequence (Q03696 21-1266): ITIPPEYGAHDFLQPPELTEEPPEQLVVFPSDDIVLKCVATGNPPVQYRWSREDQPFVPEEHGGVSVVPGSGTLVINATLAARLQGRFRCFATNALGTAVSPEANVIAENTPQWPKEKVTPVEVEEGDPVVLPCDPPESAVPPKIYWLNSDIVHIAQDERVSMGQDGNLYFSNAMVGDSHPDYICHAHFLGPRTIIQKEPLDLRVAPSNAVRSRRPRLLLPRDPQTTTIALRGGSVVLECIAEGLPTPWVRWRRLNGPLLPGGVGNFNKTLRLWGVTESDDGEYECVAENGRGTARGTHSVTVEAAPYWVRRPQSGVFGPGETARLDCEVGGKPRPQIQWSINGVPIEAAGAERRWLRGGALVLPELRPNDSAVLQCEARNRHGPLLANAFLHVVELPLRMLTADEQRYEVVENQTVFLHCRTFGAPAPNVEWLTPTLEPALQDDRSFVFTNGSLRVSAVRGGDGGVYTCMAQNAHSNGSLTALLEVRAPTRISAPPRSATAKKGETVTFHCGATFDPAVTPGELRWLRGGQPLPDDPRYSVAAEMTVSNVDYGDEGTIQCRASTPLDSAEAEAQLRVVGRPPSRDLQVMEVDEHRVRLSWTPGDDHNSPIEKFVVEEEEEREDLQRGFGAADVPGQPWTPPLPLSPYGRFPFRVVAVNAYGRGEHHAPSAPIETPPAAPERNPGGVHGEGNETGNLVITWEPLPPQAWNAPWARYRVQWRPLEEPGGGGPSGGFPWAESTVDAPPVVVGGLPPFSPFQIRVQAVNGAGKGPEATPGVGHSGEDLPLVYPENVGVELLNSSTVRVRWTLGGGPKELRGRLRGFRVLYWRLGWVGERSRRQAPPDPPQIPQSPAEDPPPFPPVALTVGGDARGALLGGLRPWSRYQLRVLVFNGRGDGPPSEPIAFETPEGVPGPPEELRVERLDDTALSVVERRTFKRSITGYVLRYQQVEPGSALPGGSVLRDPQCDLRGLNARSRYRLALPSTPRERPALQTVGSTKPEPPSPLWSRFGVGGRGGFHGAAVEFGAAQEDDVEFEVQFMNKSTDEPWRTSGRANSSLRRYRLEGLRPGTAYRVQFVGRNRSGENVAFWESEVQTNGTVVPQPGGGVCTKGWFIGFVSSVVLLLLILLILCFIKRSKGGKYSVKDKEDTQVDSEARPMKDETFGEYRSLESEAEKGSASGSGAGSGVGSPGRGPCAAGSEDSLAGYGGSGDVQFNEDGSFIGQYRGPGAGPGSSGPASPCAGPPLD

The Kd is the free concentration of one partner at which half of the binding sites on the other are occupied at equilibrium, for simple one-to-one binding. Lower therefore signals tighter binding. Take neurocan-C (domain or fragment): in experiment [1], the Kd was found to be 5.3 nM and the t1/2 of dissociation in excess buffer came out at 4 h.
Take “neurocan (from UniProt P55067 23-1257) (natural protein)”: the percent decrease of binding in isotonic against hypotonic buffer in experiment [2] lay in the range of 35 to 60%. In addition, the percent of total counts bound in experiment [3] amounted to 9%.
